Results taken from patent publication US6277617A, “Chemically modified enzymes” (Genencor International, Inc., priority 1997, dated 2001).

Substrate: C[C@H](NC(=O)CCC(=O)O)C(=O)N[C@@H](C)C(=O)N1CCC[C@H]1C(=O)N[C@@H](Cc1ccccc1)C(=O)Nc1ccc([N+](=O)[O-])cc1
Test: Hydrolysis of succinyl-L-Ala-L-Ala-L-Pro-L-Phe-p-nitroanilide, kinetic parameters
Format: biochemical, Bacillus lentus
Conditions: pH 7.5, 0.1 M sodium phosphate, 0.5 M NaCl, 1% DMSO, 25° C.
Procedure: Activity, including the kinetic parameters kcat, KM, and kcat /KM were measured for hydrolysis of the synthetic peptide substrate succinyl-L-Ala-L-Ala-L-Pro-L-Phe-p-nitroanilide using the method described in Bonneau, P. et al. (1991) J. Am. Chem. Soc., 113(3):1030. Briefly, a small aliquot of subtilisin variant stock solution was added to a 1 cm cuvette containing substrate dissolved in 0.1 M sodium phosphate buffer, pH 7.5, containing 0.5 M NaCl and 1% DMSO, and thermostated at 25° C. or similarly at pH 8.6, 0.1 M tris buffer containing 0.05% Tween™80 and 1% DMSO. The reaction progress was followed spectrophotometrically by monitoring the absorbance of the reaction product p-nitroaniline at 410 nm using a Perkin Elmer λ2 spectrophotometer (Δε410 8800 M^-1 cm^-1).
The modified enzymes were prepared as described above after site-directed mutagenesis to replace the amino acid of interest with a cysteine. The kinetic parameters were determined at pH 7.5 as described above. The precursor protease was a Bacillus lentus subtilisin (SBL-WT).
To examine the effects of chemical modification on the pH profile of SBL, seven modified N62C mutants were made as described above. 0.02M ethylene diamine buffers of ionic strength 0.05M (adjusted with KCl) were employed with 1.25×10^-4 M succinyl-AAPF-pNA substrate and Kcat /KM measurements were performed as described above. Kcat /KM reflects the pKa of His64, part of the catalytic triad for SBL, in the free enzyme and is unaffected by nonproductive binding modes. Fersht, A. E. (1985) Enzyme Structure and Mechanism 2 ed., Freeman (New York). pKa was calculated using Graphit (McGeary & Associates, Middletown Conn.). The shift in pKa reflects a shift in the pH profile of SBL. Representative pH profiles for SBL N62C-Scylcohexyl (N62C-Scy) and SBL-WT are shown in FIG. 3 ([E]=1×10^-7 to 5×10^-8 M at 25° C.). Points were done in duplicate.

Protein | Km (other: SBL-WT) [µM] | kcat (other: SBL-WT) [s⁻¹] | kcat/Km (other: SBL-WT) [M⁻¹ s⁻¹] | Km (other: N62C) [µM] | kcat (other: N62C) [s⁻¹] | kcat/Km (other: N62C) [M⁻¹ s⁻¹]
Bacillus lentus subtilisin, wild type (SBL-WT) (Lederbergia lenta) (protein, made in house; host or cells: B. subtilis) AQSVPWGISRVQAPAAHNRGLTGSGVKVAVLDTGISTHPDLNIRGGASFVPGEPSTQDGNGHGTHVAGTIAALNNSIGVLGVAPSAELYAVKVLGASGSGSVSSIAQGLEWAGNNGMHVANLSLGSPSPSATLEQAVNSATSRGVLVVAASGNSGAGSISYPARYANAMAVGATDQNNNRASFSQYGAGLDIVAPGVNVQSTYPGSTYASLNGTSMATPHVAGAAALVKQKNPSWSNVQIRNHLKNTATSLGSTNLYGSGLVNAEAATR | 550 | 48 | 87000 | – | – | –
Bacillus lentus subtilisin (SBL) variant N62C (Lederbergia lenta; N60C) (protein, made in house; host or cells: B. subtilis) AQSVPWGISRVQAPAAHNRGLTGSGVKVAVLDTGISTHPDLNIRGGASFVPGEPSTQDGCGHGTHVAGTIAALNNSIGVLGVAPSAELYAVKVLGASGSGSVSSIAQGLEWAGNNGMHVANLSLGSPSPSATLEQAVNSATSRGVLVVAASGNSGAGSISYPARYANAMAVGATDQNNNRASFSQYGAGLDIVAPGVNVQSTYPGSTYASLNGTSMATPHVAGAAALVKQKNPSWSNVQIRNHLKNTATSLGSTNLYGSGLVNAEAATR | – | – | – | 1490 | 61 | 41000
